Test results taken from patent US10501748B2, “Methods and compositions for integration of an exogenous sequence within the genome of plants” (Dow AgroSciences LLC, priority 2013, dated 2019).

B1: pDAS000132: plasmid donor DNA, 750-bp homology arms, A-genome, introduces S653N mutation; SEQ ID NO:65 (nucleic acid)
DNA: TGCAAGCAGGTCCAAGATTGTGCACATTGACATTGACCCAGCTGAGATTGGCAAGAACAAGCAGCCACATGTCTCCATTTGTGCAGATGTTAAGCTTGCTTTACAGGGGTTGAATGCTCTATTAAATGGGAGCAAAGCACAACAGGGTCTGGATTTTGGTCCATGGCACAAGGAGTTGGATCAGCAGAAGAGGGAGTTTCCTCTAGGATTCAAGACTTTTGGCGAGGCCATCCCGCCGCAATATGCTATCCAGGTACTGGATGAGCTGACAAAAGGGGAGGCGATCATTGCTACTGGTGTTGGGCAGCACCAGATGTGGGCGGCTCAGTATTACACTTACAAGCGGCCACGGCAGTGGCTGTCTTCGTCTGGTTGGGGGCAATGGGATTTGGGTTACCAGCTGCAGCTGGCGCTGCTGTGGCCAACCCAGGTGTTACAGTTGTTGACATTGATGGAGATGGTAGTTTCCTCATGAACATTCAGGAGTTGGCATTGATCCGTATTGAGAACCTCCCTGTGAAGGTGATGATATTGAACAACCAGCATCTGGGAATGGTGGTGCAATGGGAGGATAGGTTTTACAAGGCCAATCGGGCGCACACATACCTTGGCAACCCAGAAAATGAGAGTGAGATATATCCAGATTTTGTGACGATTGCTAAAGGATTCAACGTTCCGGCAGTTCGTGTGACGAAGAAGAGCGAAGTCACTGCAGCAATCAAGAAGATGCTTGAGACCCCAGGGCCATACTTGTTGGATATCATCGTCCCGCATCAGGAGCACGTGCTGCCTATGATCCCAAATGGTGGTGCTTTCAAGGACATGATCATGGAGGGTGATGGCAGGACCTCGTACTGAAATTTCGACCTACAAGACCTACAAGTGTGACATGCGCAATCAGCATGGTGCCCGCGTGTTGTATCAACTACTAGGGGTTCAACTGTGAACCATGCGTTTTCTAGTTTGCTTGTTTCATTCATATAAGCTTGTGTTACTTAGTTCCGAACCCTGTAGCTTTGTAGTCTATGCTCTCTTTTGTAGGGATGTGCTGTCATAAGATATCATGCAAGTTTCTTGTCCTACATATCAATAATAAGTACTTCCATGGAATAATTCTCAGTTCTGTTTTGAATTTTGCATCTTCTCACAAACAGTGTGCTGGTTCCTTTCTGTTACTTTACATGTCTGCCGTGTCCGGTTATGACATAATGACCGATGGAGGGTGGTCAGCAGGTTTTAGACGGGGAGTTGAAACTTTTTTTTGGGGGGAAGAAATCTGAATACAGTTGGGAGGAAAGATAAAAGCATATACCTTGATTAATTTATTGAGCCCAATATCCAGCCTAATTTATCAAGCAATAGGCAGTGTAGGGTGTTGGC
modifications: pDAS000132
B2: pDAS000433: donor molecule backbone for first transgene stack, S653N; SEQ ID NO:71 (nucleic acid)
DNA: CCACTCTTGCCCTACACGACACTGAAGACCTTATGATTCCAAACGGCGGCGCCTTCAAGGACATGATCATGGAGGGTGATGGCAGGACCTCGTACTGAAATTTCGACCTACAAGACCTACAAGTGTGACATGCGCAATCAGCATGGTGCCCGCGTGTTGTATCAACTACTAGGGGTTCAACTGTGAACCATGCGTTTTCTAGTTTGCTTGTTTCATTCATATAAGCTTGTGTTACTTAGTTCCGAACCCTGTAGCTTTGTAGTCTATGCTCTCTTTTGTAGGGATGTGCTGTCATAAGATATCATGCAAGTTTCTTGTCCTACATATCAATAATAAGTACTTCCATGGAATAATTCTCAGTTCTGTTTTGAATTTTGCATCTTCTCACAAACAGTGTGCTGGTTCCTTTCTGTTCGCTGACGCCCTCCTCGACTCCATCCCCATGGTCGCCATCACGGGCCAGGTCCCCCGCCGCATGATCGGTAGCGACTTCGTGGGCGAGGAAAGCCTTTCGTCCAAGGTGGTCCCTCCTCGCAATCTTGTTGGATGGTGAATATTATAAAAGCCTGCCCTTCTCGCGGGTAAGACTCCCGCCCATCCAGGATGAGGATGACCAGCCTTTTGCAGTTTATCCACTAGGGACAGGATTGCATCCTGCCGAAACCCTGCCAAGCTTGAGGTAGCCTCCAATTTGACGGTGCCGCCAGCGACGCCGTCTGGAACTGTCCTTTTTGAGGACCACTCCGTTTGTCTAGAGGTACCTGGAGATCATGACATTAAGGATGACCAGTTCGTAAAGGTCCTGCGGTGTCTATTGCTTTTCATAGGTTAATAAGTGTTTGCTAGACTGTGGTGAAAGGCCAAGACTCCCGCCCATCTCTCTATGCCCGGGACAAGTGCCACCCCACAGTGGGGCAGGATGAGGATGACCAAAGACTCCCGCCCATCTCACTAGGGACAGGATTGGCCTTTTGCAGTTTATCTCTATGCCCGGGACAAGTGTATCCGAAGTAAATAAAACCATCGGACTCTCGTATAAGACTGTCGACTCGACCGGCCGACGCATAGGTTCATTTGAAGCTGCTATTCTATTTAAATTGAAACTCGGACGGTAGCAGTGTGGTATGAGGTCTTCAGCACACTCGGTAACTCCAGTCAC
modifications: pDAS000433

Columns and labels:
[1] = system: endogenous AHAS genes (three homoeologous copies); assay: transient assay of ZFN-mediated HR-directed AHAS editing in biolistically transfected scutella of immature zygotic embryos; type: cell-based, Triticum aestivum; details: for Editing Frequency (ppm): HR-directed, scutella
From the text: Donor DNA designs were based on a plasmid DNA vector containing 750-bp homology arms (i.e. sequence identical to the endogenous AHAS gene) flanking each side of the target cleavage site for ZFNs 29732 and 29730. A plasmid DNA vector was designed for each of the three wheat sub-genomes: pDAS000132 (FIG. 3), pDAS000133 (FIG. 4) and pDAS000134 (FIG. 5) were designed to the A-, B- and D-genome, respectively (SEQ ID NO:65, SEQ ID NO:66, and SEQ ID NO:67). Each plasmid DNA vector was designed to introduce an S653N ([…]) mutation as a genomic modification conferring tolerance to imidazolinone class herbicides at the target homoeologous copy of the endogenous AHAS gene by ZFN-mediated HR-directed DNA repair. Two additional plasmid DNA constructs were also designed to target the D-genome. The first plasmid DNA, pDAS000135 (SEQ ID NO: 68) (FIG. 6), was identical to pDAS000134 except that it contained two additional (synonymous) single nucleotide point mutations, one each located at 15-bp upstream and downstream of the S653N mutation.
Seedlings of the donor wheat line were grown in an environment controlled growth room maintained at 18/16° C. (day/night) and a 16/8 hour (day/night) photoperiod with lighting provided at […]. Wheat spikes were collected at 12-14 days post-anthesis and were surface sterilized by soaking for 1 min in 70% (v/v) ethanol. The spikes were threshed and the immature seeds were sterilized for 15 min in 17% (v/v) bleach with gentle shaking, followed by rinsing at least three times with sterile distilled water. The embryos were aseptically isolated from the immature seeds under a dissecting microscope. The embryonic axis was removed using a sharp scalpel and discarded. The scutella were placed into a 9 cm PETRI™ dish containing osmotic MS (E3 maltose) medium, with the uncut scutellum oriented upwards. A total of 20 scutella were plated onto each 9 cm PETRI™ dish. The prepared embryos were pre-cultured in the dark at 26° C. for a minimum of 4 h before transfection using biolistics-mediated DNA delivery.
Gold particles for biolistic-mediated DNA delivery were prepared by adding 40 mg of 0.6 micron colloidal gold particles (BioRad) to 1 mL of sterile water in a 1.5 mL microtube. The gold particles were resuspended by vortexing for 5 min. To prepare sufficient material for 10 bombardments, a 50 μL aliquot of the gold particle suspension was transferred to a 1.5 mL microtube containing 5 μg of DNA resuspended in 5 μL of sterile water. Following thorough mixing by vortexing, 50 μL of 2.5 M CaCl2 and 20 μL of 0.1 M spermidine were added to the microtube, with thorough mixing after the addition of each reagent. The DNA-coated gold particles were pelleted by centrifugation for 1 min at maximum speed in a bench top microfuge. The supernatant was removed and 1 mL of 100% ethanol was added to wash and resuspend the gold particles. The gold particles were pelleted by centrifugation, as described above, and the supernatant discarded. The DNA-coated gold particles were resuspended in 110 μL of 100% ethanol and maintained on ice. Following a brief vortex, 10 μL of the gold particle solution was placed centrally onto a macro-carrier membrane and allowed to air dry.
The PDS-1000/HE PARTICLE GUN DELIVERY SYSTEM™ (BioRad) was used to transfect the scutella of immature zygotic wheat embryos by biolistic-mediated DNA delivery. Delivery of the DNA-coated gold particles was performed using the following settings: gap 2.5 cm, stopping plate aperture 0.8 cm, target distance 6.0 cm, vacuum 91.4-94.8 kPa, vacuum flow rate 5.0 and vent flow rate 4.5. The scutella of immature zygotic wheat embryos were bombarded using a 900 psi rupture disc. Each PETRI™ dish containing 20 scutella was bombarded once. The bombarded scutella were incubated at 26° C. in the dark for 16 h before being transferred onto medium for callus induction. The scutella were cultured on callus induction medium in the dark at 26° C. for 7 d. […]

[2] = system: endogenous AHAS locus in scutella of cv. Bobwhite MPB26RH; assay: biolistics-mediated transformation for first sequential transgene stack with IMAZAMOX or BASTA selection; type: cell-based, Triticum aestivum; details: donor with pDAB109350 at 5:1
Experimental: A total of 55,468 scutella of immature zygotic embryos from the donor wheat line cv. Bobwhite MPB26RH were prepared for biolistics-mediated DNA delivery, as described previously. DNA-coated gold particles were prepared with the formulations as described above. For transfections performed using the linear double-stranded donor DNA derived from “QA_pDAS000434” or pDAS000433, the donor DNA was mixed at a 5:1 molar ratio with plasmid DNA for pDAB109350 (encoding ZFNs 29732 and 29730). Transfections performed using pDAS000143 were performed using gold particles that were coated only with plasmid DNA for pDAS000143.
Biolistic-mediated transfections were performed as described previously. Following bombardment, the transfected scutella were incubated at 26° C. in the dark for 16 h before being transferred onto medium for callus induction.
Two different chemical selection strategies were used to enrich for regenerated wheat plants with an integrated linear double-stranded donor molecule. […] The purpose of the second chemical selection strategy was to allow the frequency of precise (on-target) versus random (off-target) donor integration to be quantified, as well as the frequency of perfect and imperfect integration at the endogenous AHAS loci. […]

Molecule	Editing Frequency (ppm) ([1]; wheat sub-genome A, ZFN 29732-2A-29730, donor-to-ZFN molar ratio 5:1)	Editing Frequency (ppm) ([1]; wheat sub-genome A, ZFN 29732-2A-29730, donor-to-ZFN molar ratio 10:1)	Editing Frequency (ppm) ([1]; wheat sub-genome A, ZFN n/a (donor only), average of three biological replicates)	Editing Frequency (ppm) ([1]; wheat sub-genome B, ZFN 29732-2A-29730, ratio 5:1)	Editing Frequency (ppm) ([1]; wheat sub-genome B, ZFN 29732-2A-29730, ratio 10:1)	Editing Frequency (ppm) ([1]; wheat sub-genome B, ZFN n/a (donor only))	Editing Frequency (ppm) ([1]; wheat sub-genome D, ZFN 29732-2A-29730, ratio 5:1)	Editing Frequency (ppm) ([1]; wheat sub-genome D, ZFN 29732-2A-29730, ratio 10:1)	Editing Frequency (ppm) ([1]; wheat sub-genome D, ZFN n/a (donor only))	molecular evidence for ZFN-mediated HR-directed editing in all three homoeologous copies of endogenous AHAS ([1]; co-transfected with pDAB109350, scutella (pDAS000131 and pDAS000134 also SEC protoplasts))	wheat plants recovered ([2]; BASTA selection)	wheat plants with AHAS herbicide tolerance phenotype recovered ([2]; IMAZAMOX selection)
B1	2,353 ppm	1,800 ppm	5	42	30	0	110	61	0	strong molecular evidence	–	–
B2	–	–	–	–	–	–	–	–	–	–	1,652	No wheat plants
